# In patent US20260092084A1, “PEPTIDE AND ASSEMBLY OR COMPOSITION CONTAINING SAID PEPTIDE” (priority 2022, published 2026):
# Square brackets hold non-standard residues; d marks the D form. Ends that are not written are not given here. * marks the point of attachment. pS = N[C@@H](COP(=O)(O)O)C(=O)O; Tfa = O=C(C(F)(F)F)*
# Columns and labels:
# [1] = Average particle diameter of peptide assembly by dynamic light scattering; format: physicochemical; conditions: 10 mM HEPES, 150 mM NaCl buffer (pH 7); 40 mM DMSO stock diluted 100-fold; stood overnight; 25° C.; main peak of scattering intensity
# Description: 5 mg of each of the peptides of Examples 1-1 to 1-5 and Reference Examples 1-1 to 1-8 was dissolved in dimethyl sulfoxide (DMSO) to provide a stock solution (40 mM). To a 10 mM HEPES and 150 mM NaCl buffer (pH 7) under stirring with a micromixer (E-36, Taitec Corporation), 4 μL of the stock solution was dropped to be diluted 100-fold. The dilution was vortexed and then left to stand still at room temperature overnight. Then, 200 μL of the dilution was used as a measurement sample and measurement of particle diameter distribution was performed at 25° C. by dynamic light scattering with Litesizer 500 (Anton Paar GmBH). The results determined by defining the main peak of a scattering intensity as the average particle diameter of an assembly are shown in Table 3. Provided that, when a polydispersity index was more than 20%, the main peak was determined with further reference to a volume-based particle diameter distribution.
# [2] = Pyrene fluorescence probing, critical aggregation concentration; format: physicochemical; conditions: pyrene probe 0.1 μM in PBS, 24 hours, room temperature; inflection point of FIG. 5
# Description: Fluorescence probing has hitherto been widely used as a technique for measuring the critical micellar concentration (CMC) of a surfactant solution. When hydrophobic fluorescent molecules are added to an aqueous solution of a surfactant and excited, week fluorescence is generated from the fluorescent molecules dispersed in the solution under a state in which the concentration of the surfactant is low. Meanwhile, the concentration of the surfactant is more than the CMC, the hydrophobic fluorescent molecule is incorporated into a micelle surrounded by hydrophobic groups of the surfactant (hydrophobic environment) and emits strong fluorescence. In this experimental example, a change in fluorescent property with a change in peptide concentration was investigated by using pyrene as a fluorescence probe and using a peptide instead of the surfactant. […]
# (3) One hundred fifty microliter of the reaction solution was transferred to each well of a plate (Non-Treated Black Polystyrene 96-well plate (Corning 3694)). […] The peak value of a fluorescence intensity (384 nm) was plotted against a peptide concentration (logarithmic value).
# This increased fluorescence intensity means formation of a peptide assembly that provides a hydrophobic environment capable of encapsulating pyrene. […] The peptides of Examples 1-2 and 1-5 each had approximately the same fluorescence intensity up to 0.1 mM.
substance,measurement,setting,value
DSpSEEKW-LLELLELL-RRK(Tfa)RR (DS[pS]EEKWLLELLELLRRK(Tfa)RR-NH2; N-terminus assumed; SMILES CC(C)C[C@H](NC(=O)[C@H](CC(C)C)NC(=O)[C@H](CCC(=O)O)NC(=O)[C@H](CC(C)C)NC(=O)[C@H](CC(C)C)NC(=O)[C@H](CCC(=O)O)NC(=O)[C@H](CC(C)C)NC(=O)[C@H](CC(C)C)NC(=O)[C@H](Cc1c[nH]c2ccccc12)NC(=O)[C@H](CCCCN)NC(=O)[C@H](CCC(=O)O)NC(=O)[C@H](CCC(=O)O)NC(=O)[C@H](COP(=O)(O)O)NC(=O)[C@H](CO)NC(=O)[C@@H](N)CC(=O)O)C(=O)N[C@@H](CCCNC(=N)N)C(=O)N[C@@H](CCCNC(=N)N)C(=O)N[C@@H](CCCCNC(=O)C(F)(F)F)C(=O)N[C@@H](CCCNC(=N)N)C(=O)N[C@@H](CCCNC(=N)N)C(N)=O) [Example 1-1],Average particle diameter,[1],380 nm
same,critical aggregation concentration (CAC),[2],50 µM
